Measurements reported in PMC6499816, “Molecular determinants regulating selective binding of autophagy adapters and receptors to ATG8 proteins” (Nature Communications, 2019).

Molecular target: -L1 (recombinant, BLI) (human), Q9H0R8
Assay: BLI
Details: modification not given

Sequence of -L1 (recombinant, BLI) (human), Q9H0R8 (Q9H0R8 whole entry): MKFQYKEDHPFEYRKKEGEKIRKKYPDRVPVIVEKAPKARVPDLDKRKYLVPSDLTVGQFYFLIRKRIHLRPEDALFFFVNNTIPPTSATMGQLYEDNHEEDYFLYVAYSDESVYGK

NISQKSDEEDFVKIEDLPLKLTIY [PCM1 V1958I LIR peptide]
Kd: 1.1 µM

NISQKSDEEDFDKVEDLPLKLTIY [PCM1 V1956D LIR peptide]
Kd: 5.2 µM
